The values that follow come from US8673579B2, “Peptide probes for diagnostics and therapeutics” (priority 2006, dated 2014).

pyrene = pyrene fluorescent label

The nature of data set [1]: Circular dichroism secondary structure calculation. In kind it is physicochemical. To be noted: circular dichroism in 30% TFE/Tris, CDPRO deconvolution.
The test system of data set [2] is Aβ40 and Aβ42 in human cerebrospinal fluid (CSF). As to the kind of experiment: Detection of Aβ in human CSF samples (excimer/monomer fluorescence ratio). In kind it is binding. To be noted: 40 μL CSF, 2 μM dipyrene-labeled probe, 1 hour; ratio 430-530 nm over 370-385 nm. From the text:
A peptide probe specific for Aβ (SEQ ID NO:36) is used to detect Aβ40 and Aβ42 in samples of human cerebrospinal fluid (CSF) obtained from Alzheimer's patients and from age-matched healthy patients. […] The data is presented in FIG. 12 as the ratio of the […] region (430-530 nm) over the monomeric region (370-385 nm). […] FIG. 12A presents the data for each patient, while FIG. 12B presents the average data for each patient group.

For data set [3], the target named is T1, Aβ plaques (Homo sapiens, UniProt P05067).
T1 sequence (P05067 672-713 limits assumed): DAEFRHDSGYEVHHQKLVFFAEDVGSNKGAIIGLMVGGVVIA
Data set [4] relates to Aβ40 and Aβ42 in human serum. As to the kind of experiment: Detection of Aβ in human serum with immobilized biotinylated peptide probe. In kind it is binding. Conditions: 200 μL serum; biotinylated probe on streptavidin magnetic beads, then 2 μM dipyrene-labeled probe 3-5 hours. The protocol:
Biotinylated peptide probe is immobilized to Dynal magnetic beads coated with streptavidin. These beads are incubated directly with the serum samples for 1 hour, then the magnetic beads and the captured material are pulled down to remove the serum samples.

Data set [5] has as its target T1, Aβ plaques. Briefly: In vitro staining of brain sections from hAPP751SL transgenic mice. In kind it is binding. The protocol:
The following illustrates the ability of peptide probes to target Aβ plaques (e.g., insoluble self-aggregates of Aβ protein associated with Alzheimer's disease) both in vitro and in vivo. A peptide probe specific for Aβ (SEQ ID NO:36) and labeled at each terminus with pyrene is used.
In vitro studies are carried out on brain sections from transgenic mice over-expressing human APP751 with London and Swedish mutations (hAPP751SL). This protein is an Aβ mutant that forms neuritic plaques in the transgenic mice. Tissue from non-transgenic littermate mice served as control tissue.
Two different types of tissue slices are evaluated: cyro-cut (frozen and sliced) and paraffin embedded and sliced. The peptide probe is incubated on the brain slices and binding of the peptide probe to the brain, and to the amyloid deposits/plaques in particular, are qualitatively evaluated. For reference purposes, consecutive slices are immunohistochemically stained with an anti-Aβ antibody, the 6E10 antibody or Thioflavin S. The use of anti-Aβ controls confirms the specificity of the staining on neuritic plaques.
Images are recorded on a Nikon E800 microscope with a mounted PixelFly camera. For tiled image recordings, the microscope is equipped with a StagePro software controlled automatic table. Images of peptide probe staining and antibody and ThioflavinS staining, respectively, are overlaid in Adobe Photo Shop software
In the latter samples, cells from the neuronal layer of the hippocampus are marked, as are brain tissue around plaques in the cortex. Thus, the quality of the stain may be better on paraffin sections.

A further data set concerns the target Aβ42 (Homo sapiens, UniProt P05067). As to the kind of experiment: Pyrene-labeled peptide probe fluorescence with structural forms of Aβ42. It counts as binding. The source says: (§1) A peptide probe specific for Aβ (SEQ ID NO:36) is used to detect specific structural forms of Aβ40 and Aβ42. The peptide probe is labeled at each terminus with pyrene. The peptide probe is contacted with different samples comprising Aβ42 oligomers, Aβ40 oligomers, and Aβ40 monomers.
(§2) Interaction between the peptide probe and sample is detected by excitation at 350 nm and scanning fluorescence from 360 to 600 nm. […] FIG. 11A (fibers and monomer) & 11B (oligomers).

For another data set, the target named is Aβ40 (Homo sapiens, UniProt P05067). As to the kind of experiment: Pyrene-labeled peptide probe fluorescence with structural forms of Aβ40. It counts as binding.
Aβ40, sequence (P05067 672-711): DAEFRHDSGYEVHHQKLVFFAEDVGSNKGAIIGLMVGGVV
From the text: as §1, §2

The target in data set [6] is T2, PrP^Sc (Ovis aries, UniProt P23907).
T2 sequence (P23907 25-233 limits assumed): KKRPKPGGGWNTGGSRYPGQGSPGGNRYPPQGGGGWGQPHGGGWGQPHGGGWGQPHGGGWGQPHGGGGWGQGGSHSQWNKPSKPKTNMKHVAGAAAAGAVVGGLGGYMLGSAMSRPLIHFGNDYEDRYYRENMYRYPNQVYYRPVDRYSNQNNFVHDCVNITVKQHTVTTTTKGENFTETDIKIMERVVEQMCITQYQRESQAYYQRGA
The target of data set [7] is T3, PrP^Sc (Mesocricetus auratus, UniProt P04273).
T3 sequence (P04273 23-231 limits assumed): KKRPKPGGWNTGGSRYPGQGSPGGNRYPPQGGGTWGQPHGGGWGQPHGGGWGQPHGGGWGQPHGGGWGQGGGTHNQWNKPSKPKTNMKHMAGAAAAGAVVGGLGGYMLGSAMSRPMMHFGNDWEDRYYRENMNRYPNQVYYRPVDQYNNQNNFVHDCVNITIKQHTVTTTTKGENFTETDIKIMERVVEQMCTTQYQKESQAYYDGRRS
Data set [8] deals with T2, PrP^Sc. This is another data set of the same source.
For data set [9], the target named is T3, PrP^Sc. This is another data set of the same source.
The mark [10] stands for this setting: intranasal labeled peptide probe.
The mark [11] stands for this setting: general statement in description.
Where [12] appears, read: probe labeled at each terminus with pyrene, excitation 350 nm, scan 360 to 600 nm.

Aβ42, sequence (P05067 672-713): as the sequence (P05067 672-713 limits assumed) above

For “Aβ40 fibers: fibers of Aβ40 amyloid beta protein used as sample”, in data set [1], the turn/unordered structure is on record as 35.9%, the α helix structure was 5.6% and the “β strand (sheet) structure” value is given as 58.4%.
For “Aβ42 fibers: fibers of Aβ42 amyloid beta protein used as sample”, in that order: 27.2%, 12.6% and 60.2%.
On to “KLVFFAEDVGSNKGAIIGLM [SEQ ID NO:36, peptide probe specific for Aβ: Aβ 17-35 with additional N-terminal lysine]”, for which the “stratification of Alzheimer's patients from age-matched healthy patients” value in [2] is on record as “able to stratify”. In the data set with Aβ plaques [3] (setting [10]), the “binding in brain of hAPP751SL transgenic mice” value was “binds to the amyloid and agglomerates outside the blood vessel in the brain”; the “distribution and binding in brain of nontransgenic mice” value is recorded as “reaches the olfactory bulb, but does not bind to a specifiable morphological structure”. The “crossing of the blood-brain barrier (BBB)” value in the data set with Aβ plaques [3] (mouse, in vivo) is reported as “crosses the blood-brain barrier”. The “stratification of Alzheimer's patients from age-matched healthy patients” value in data set [4] is recorded as “able to stratify”. In the data set with Aβ plaques [5] (hAPP751SL transgenic brain slices), the “staining of human amyloid peptide bearing blood vessels” value was “specifically stained”. The “plaque specificity of staining, paraffin versus cryo-cut slices” value in the data set with Aβ plaques [5] (overlay with antibody staining of consecutive slices) was “staining on paraffin slices is more specific to plaques than staining on cryo-cut slices”. Also, the “staining of plaques on brain slices” value with Aβ plaques [5] (paraffin or cryo-cut slices, dipyrene-labeled probe) is “plaque-specific staining is apparent”. In addition, in the data set with Aβ42 (setting [11]), the “specific reaction with Aβ42 monomers” value is recorded as “do not specifically react” and the “specific reaction with Aβ42 oligomers” value is “specifically react”. In the data set with Aβ42 (setting [12]), the “dose-dependent reaction with Aβ42 fibers” value is “reacts” and the “dose-dependent reaction with Aβ42 oligomers” value is reported as “reacts”. In the data set with Aβ40 (setting [11]), the “specific reaction with Aβ40 monomers” value is given as “do not specifically react” and the “specific reaction with Aβ40 oligomers” value is listed as “specifically react”. Besides, in the data set with Aβ40 (setting [12]), the “dose-dependent reaction with Aβ40 fibers” value was “reacts”, the “dose-dependent reaction with Aβ40 monomer” value is recorded as “dose not react” and the “dose-dependent reaction with Aβ40 oligomers” value is “reacts”. Besides, in data set [1], the turn/unordered structure is on record as 55.5%, the α helix structure is 19.4% and the “β strand (sheet) structure” value was 25.1%.
As for “VVAGAAAAGAVHKMNTKPKMKHVAGAAAAGAVV [SEQ ID NO:43]”, at PrP^Sc [6], the “effect of sample sonication on signal-to-noise” value was “improved the signal-to-noise ration”, the “reactivity with PrP^Sc in sera from infected sheep” value is “reacted”, the “reactivity with sera from normal sheep” value is listed as “did not react” and the sensitivity is 100%. On PrP^Sc [6], the specificity amounted to 100%. On PrP^Sc [7], the “reactivity after sonication of samples” value is reported as “increased reactivity”. The “relative reactivity with sheep blood components” value on PrP^Sc [8] is reported as “buffy coat>serum>plasma”. At PrP^Sc [9], the “reactivity with smaller versus larger PrP^Sc aggregates” value was “reacts with smaller PrP^Sc aggregates over larger PrP^Sc aggregates”.
Take “labeled peptide probe: peptide probe specific for Aβ (SEQ ID NO:36) labeled at each terminus with pyrene (pyrene-KLVFFAEDVGSNKGAIIGLM-pyrene)”: in [1], the turn/unordered structure was 54.1%, the α helix structure was 18.3% and the “β strand (sheet) structure” value was 27.6%.
Consider “oligomers of Aβ42: sample of oligomers of Aβ42 including dimers, trimers, tetramers, hexamers and 12-mers”, for which, in [1], the turn/unordered structure is 45.4% and the “β strand (sheet) structure” value is given as 52.7%.
